Reference: the supplement of paper PMC7877785
± gives the uncertainty stated by the source.

Test: self-splicing fitness, log relative to wild type (ln ratio); higher = more splicing; Tetrahymena group I intron in knt gene, E. coli kanamycin selection, DiMSum; sequences stand for … in CUCUCU…GGAGGGAAAAGUUAUCAGGCAUGCACCUGGUAGCUAGUCUUUAAACCAAUAGAUUGCAUCGGUUUAAAAGGCAAGACCGUCAAAUUGCGGGAAAGGGGUCAACAGCCGUUCAGUACCAAGUCUCAGGGGAAACUUUGAGAUGGCCUUGCAAAGGGUAUGGUAAUAAGCUGACGGACAUGGUCCUAACCACGCAGCCAAGUCCUAAGUCAACAGAUCUUCUGUUGAUAUGGAUGCAGUUCACAGACUAAAUGUCGGUCGGGGAAGAUGUAUUCUUCUCAUAAGAUAUAGUCGGACCUCUCCUUAAUGGGAGCUAGCGGAUGAAGUGAUGCAACACUGGAGCCGCUGGGAACUAAUUUGUAUGCGAAAGUAUAUUGAUUAGUUUUGGAGUACUCGUGGUCG
Method in brief: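 Colonies from six replicate transformations of E. coli BL21(DE3) were pooled and amplicon-sequenced on an Illumina HiSeq 2500. The library placed an intron with all eight P1ex-region nucleotides randomised inside the knt kanamycin-resistance gene on pET-22b(+), and cells grew overnight at 37°C or 30°C on LB agar with or without 25 μg/mL kanamycin (plus 100 μg/mL carbenicillin, 50 μM IPTG, 0.2% rhamnose). Fitness is the DiMSum error-weighted combination of wild-type-normalised replicate fold changes, kanamycin versus none.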

GAGGAGCAAUAUUACGACAC
self-splicing fitness (ln) (30 °C): -0.706 ± 0.35 | self-splicing fitness (ln) (37 °C): -0.696 ± 0.31

AUAUAGCAAUAUUACGAAGG
self-splicing fitness (ln) (30 °C): -2.83 ± 0.3 | self-splicing fitness (ln) (37 °C): -2.3 ± 0.4

UUUCAGCAAUAUUACGCCUA
self-splicing fitness (ln) (30 °C): -0.129 ± 0.066 | self-splicing fitness (ln) (37 °C): 0.414 ± 0.078

UGCGAGCAAUAUUACGGCGG
self-splicing fitness (ln) (30 °C): -1.21 ± 0.084 | self-splicing fitness (ln) (37 °C): -0.816 ± 0.13

AUGAAGCAAUAUUACGCGCA
self-splicing fitness (ln) (30 °C): 0.498 ± 0.096 | self-splicing fitness (ln) (37 °C): 0.526 ± 0.12

CUCCAGCAAUAUUACGGCCU
self-splicing fitness (ln) (30 °C): -3.5 ± 0.2 | self-splicing fitness (ln) (37 °C): -1.63 ± 0.24

GUCCAGCAAUAUUACGAAUC
self-splicing fitness (ln) (30 °C): 0.437 ± 0.16 | self-splicing fitness (ln) (37 °C): 0.114 ± 0.2

CUGAAGCAAUAUUACGCCAG
self-splicing fitness (ln) (30 °C): -3.75 ± 0.29 | self-splicing fitness (ln) (37 °C): -1.17 ± 0.21

CAAUAGCAAUAUUACGAUUU
self-splicing fitness (ln) (30 °C): -2.3 ± 0.091 | self-splicing fitness (ln) (37 °C): -0.775 ± 0.084

UUGGAGCAAUAUUACGUUGC
self-splicing fitness (ln) (37 °C): -1.44 ± 0.45

UCAGAGCAAUAUUACGACAC
self-splicing fitness (ln) (30 °C): -2.63 ± 0.37 | self-splicing fitness (ln) (37 °C): -0.191 ± 0.45

GAGUAGCAAUAUUACGGAUA
self-splicing fitness (ln) (30 °C): -2.11 ± 0.25 | self-splicing fitness (ln) (37 °C): -2.41 ± 0.25

AUACAGCAAUAUUACGAUCA
self-splicing fitness (ln) (30 °C): -0.716 ± 0.086 | self-splicing fitness (ln) (37 °C): -0.37 ± 0.093

CCCGAGCAAUAUUACGUCGA
self-splicing fitness (ln) (30 °C): -4.11 ± 0.39 | self-splicing fitness (ln) (37 °C): -3.16 ± 0.25

UGACAGCAAUAUUACGAUAC
self-splicing fitness (ln) (30 °C): -3.36 ± 0.22 | self-splicing fitness (ln) (37 °C): -1.61 ± 0.19

AAUGAGCAAUAUUACGUCAC
self-splicing fitness (ln) (30 °C): -2.93 ± 0.41 | self-splicing fitness (ln) (37 °C): -1.92 ± 0.29

AUGCAGCAAUAUUACGACAC
self-splicing fitness (ln) (30 °C): -0.537 ± 0.077 | self-splicing fitness (ln) (37 °C): 0.312 ± 0.11

CUACAGCAAUAUUACGGUGG
self-splicing fitness (ln) (30 °C): -4.48 ± 0.21 | self-splicing fitness (ln) (37 °C): -2.71 ± 0.15

CCGAAGCAAUAUUACGGGGU
self-splicing fitness (ln) (30 °C): -4.25 ± 0.22 | self-splicing fitness (ln) (37 °C): -2.6 ± 0.21

ACUCAGCAAUAUUACGAACG
self-splicing fitness (ln) (30 °C): -0.623 ± 0.1 | self-splicing fitness (ln) (37 °C): -0.492 ± 0.14

ACAUAGCAAUAUUACGUGAA
self-splicing fitness (ln) (30 °C): -2.13 ± 0.093 | self-splicing fitness (ln) (37 °C): -1.18 ± 0.1

GAAGAGCAAUAUUACGAACA
self-splicing fitness (ln) (30 °C): -2.15 ± 0.23 | self-splicing fitness (ln) (37 °C): -1.54 ± 0.25

CGACAGCAAUAUUACGCUGC
self-splicing fitness (ln) (30 °C): -3.02 ± 0.25 | self-splicing fitness (ln) (37 °C): -2.24 ± 0.26

UUUUAGCAAUAUUACGCUCC
self-splicing fitness (ln) (30 °C): -1.4 ± 0.33 | self-splicing fitness (ln) (37 °C): -1.25 ± 0.45

GCAGAGCAAUAUUACGCACG
self-splicing fitness (ln) (30 °C): -4.51 ± 0.42 | self-splicing fitness (ln) (37 °C): -2.05 ± 0.23

ACGUAGCAAUAUUACGUCCA
self-splicing fitness (ln) (30 °C): -1.02 ± 0.14 | self-splicing fitness (ln) (37 °C): -1.13 ± 0.15

CGGAAGCAAUAUUACGUACC
self-splicing fitness (ln) (30 °C): -2.22 ± 0.066 | self-splicing fitness (ln) (37 °C): -0.907 ± 0.085

AUAGAGCAAUAUUACGUGCA
self-splicing fitness (ln) (30 °C): -0.67 ± 0.069 | self-splicing fitness (ln) (37 °C): -0.162 ± 0.1

ACUCAGCAAUAUUACGUGAA
self-splicing fitness (ln) (30 °C): -1.27 ± 0.053 | self-splicing fitness (ln) (37 °C): 0.294 ± 0.086

AUGGAGCAAUAUUACGAAUC
self-splicing fitness (ln) (30 °C): -3.53 ± 0.32 | self-splicing fitness (ln) (37 °C): -1.97 ± 0.36

CCGGAGCAAUAUUACGACUU
self-splicing fitness (ln) (30 °C): -2.23 ± 0.24 | self-splicing fitness (ln) (37 °C): -1.86 ± 0.48

GCAGAGCAAUAUUACGGUAG
self-splicing fitness (ln) (30 °C): -1.82 ± 0.27 | self-splicing fitness (ln) (37 °C): -0.285 ± 0.44

UGGCAGCAAUAUUACGUGUC
self-splicing fitness (ln) (30 °C): -3.85 ± 0.19 | self-splicing fitness (ln) (37 °C): -2.17 ± 0.19

GCCUAGCAAUAUUACGUUAC
self-splicing fitness (ln) (30 °C): -2.72 ± 0.2 | self-splicing fitness (ln) (37 °C): -1.49 ± 0.18

GUCCAGCAAUAUUACGUUUC
self-splicing fitness (ln) (30 °C): -0.538 ± 0.056 | self-splicing fitness (ln) (37 °C): -0.05 ± 0.074

GCGAAGCAAUAUUACGUAAG
self-splicing fitness (ln) (30 °C): -2.04 ± 0.11 | self-splicing fitness (ln) (37 °C): -1.41 ± 0.13

AACAAGCAAUAUUACGUUAU
self-splicing fitness (ln) (30 °C): -3.49 ± 0.16 | self-splicing fitness (ln) (37 °C): -2.13 ± 0.12
